Measured values: PMC8615271, “Functional Interplay between P5 and PDI/ERp72 to Drive Protein Folding” (Biology, 2021)

B1: P5 (reduced form) (enzyme, human, UniProt Q15084 20-440, looked up)
chain: LYSSSDDVIELTPSNFNREVIQSDSLWLVEFYAPWCGHCQRLTPEWKKAATALKDVVKVGAVDADKHHSLGGQYGVQGFPTIKIFGSNKNRPEDYQGGRTGEAIVDAALSALRQLVKDRLGGRSGGYSSGKQGRSDSSSKKDVIELTDDSFDKNVLDSEDVWMVEFYAPWCGHCKNLEPEWAAAASEVKEQTKGKVKLAAVDATVNQVLASRYGIRGFPTIKIFQKGESPVDYDGGRTRSDIVSRALDLFSDNAPPPELLEIINEDIAKRTCEEHQLCVVAVLPHILDTGAAGRNSYLEVLLKLADKYKKKMWGWLWTEAGAQSELETALGIGGFGYPAMAAINARKMKFALLKGSFSEQGINEFLRELSFGRGSTAPVGGGAFPTIVEREPWDGRDGELPVEDDIDLSDVELDDLGKDEL
notes: human P5 (PDIA6), Lys20-Leu440, cloned into pET15b; Used reduced (10 mM dithiothreitol treatment during purification); this was not measured here; also called ERp5; PDIA6; source: E. coli BL21 (DE3), purified (Ni-NTA, thrombin digestion, RESOURCE Q, Superdex 200)

Assays:
Conditions in all cases: both partners purified
[1] = target: T1, IRE1α LD (human, UniProt O75460 24-446); assay: far-Western, overlay or dot blot; reduced purified prey proteins (from 40 µM stocks, 3 µL) dotted on nitrocellulose; blocked with 5% skim milk in TBST; incubated with 0.2 µM reduced P5 in 20 mM Tris-HCl pH 7.6, 150 mM NaCl, 0.05% Tween 20 at 4 °C for 3 h; bound P5 detected with anti-P5 antiserum
T1 construct: human IRE1 (IRE1α LD), Ser24-Thr446, cloned into pGEX6p-1; It prints 'C-terminal GST', although pGEX6p-1 usually adds GST at the N-terminus; both tags were removed in any case; also called ER stress sensor IRE1; source: E. coli BL21 (DE3), purified (Glutathione Sepharose 4B, PreScission digestion, Ni-NTA, RESOURCE Q, Superdex 200); not shown: GST, C-terminal, cleaved
T1 sequence (looked up): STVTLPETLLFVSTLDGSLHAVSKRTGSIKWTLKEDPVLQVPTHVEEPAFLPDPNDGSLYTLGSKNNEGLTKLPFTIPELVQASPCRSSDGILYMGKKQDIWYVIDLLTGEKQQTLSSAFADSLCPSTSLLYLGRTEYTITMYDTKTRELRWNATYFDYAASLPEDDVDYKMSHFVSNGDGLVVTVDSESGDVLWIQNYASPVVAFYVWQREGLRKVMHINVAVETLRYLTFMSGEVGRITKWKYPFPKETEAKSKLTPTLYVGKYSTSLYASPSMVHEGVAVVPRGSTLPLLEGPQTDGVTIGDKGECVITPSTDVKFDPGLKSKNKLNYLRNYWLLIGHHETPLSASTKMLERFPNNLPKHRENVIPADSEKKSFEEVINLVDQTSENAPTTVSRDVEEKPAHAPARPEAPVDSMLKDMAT

[2] = target: T2, PDI (human, UniProt P07237 18-508); assay: as above
T2 construct: human PDI (P4HB), Asp18-Leu508, cloned into pET15b; also called protein disulfide isomerase; P4HB; source: E. coli BL21 (DE3), purified (Ni-NTA, thrombin digestion, RESOURCE Q, Superdex 200)

[3] = target: T3, ERp72 (human, UniProt P13667 25-645); assay: as above
T3 construct: human ERp72, Glu25-Leu645, cloned into pET15b; source: E. coli BL21 (DE3), purified (Ni-NTA, thrombin digestion, RESOURCE Q, Superdex 200)
T3 sequence (looked up): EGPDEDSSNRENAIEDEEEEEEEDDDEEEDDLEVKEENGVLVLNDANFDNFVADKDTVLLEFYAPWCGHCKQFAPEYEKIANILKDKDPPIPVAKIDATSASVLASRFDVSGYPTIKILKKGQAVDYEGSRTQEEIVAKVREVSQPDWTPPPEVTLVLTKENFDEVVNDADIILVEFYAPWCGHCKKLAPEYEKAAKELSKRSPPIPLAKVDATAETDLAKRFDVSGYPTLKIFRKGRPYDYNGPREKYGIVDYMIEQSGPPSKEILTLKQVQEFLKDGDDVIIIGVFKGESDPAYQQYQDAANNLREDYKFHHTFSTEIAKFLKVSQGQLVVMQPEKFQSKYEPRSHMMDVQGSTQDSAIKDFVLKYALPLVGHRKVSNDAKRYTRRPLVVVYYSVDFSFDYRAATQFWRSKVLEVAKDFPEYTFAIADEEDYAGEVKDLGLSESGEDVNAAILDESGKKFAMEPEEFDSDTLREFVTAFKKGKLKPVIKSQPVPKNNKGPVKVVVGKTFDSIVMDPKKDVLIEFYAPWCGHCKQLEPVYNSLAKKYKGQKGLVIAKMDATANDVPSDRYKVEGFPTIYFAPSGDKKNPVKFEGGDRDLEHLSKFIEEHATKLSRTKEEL

[4] = target: T2, PDI; assay: ITC; 280 µM P5 Cys55/58/190/193Ala mutant in the syringe (50 mM HEPES pH 7.2, 150 mM NaCl) titrated into 40 µM PDI or ERp72 in the cell (50 mM HEPES pH 7.2); 30 °C; one set of sites model
[5] = target: T3, ERp72; assay: as above
[6] = target: B1; assay: far-Western, overlay or dot blot; reduced purified prey proteins (from 40 µM stocks, 3 µL) dotted on nitrocellulose; blocked with 5% skim milk in TBST; incubated with 0.2 µM reduced P5 in 20 mM Tris-HCl pH 7.6, 150 mM NaCl, 0.05% Tween 20 at 4 °C for 3 h; bound P5 detected with anti-P5 antiserum

T2 sequence (P07237 18-508): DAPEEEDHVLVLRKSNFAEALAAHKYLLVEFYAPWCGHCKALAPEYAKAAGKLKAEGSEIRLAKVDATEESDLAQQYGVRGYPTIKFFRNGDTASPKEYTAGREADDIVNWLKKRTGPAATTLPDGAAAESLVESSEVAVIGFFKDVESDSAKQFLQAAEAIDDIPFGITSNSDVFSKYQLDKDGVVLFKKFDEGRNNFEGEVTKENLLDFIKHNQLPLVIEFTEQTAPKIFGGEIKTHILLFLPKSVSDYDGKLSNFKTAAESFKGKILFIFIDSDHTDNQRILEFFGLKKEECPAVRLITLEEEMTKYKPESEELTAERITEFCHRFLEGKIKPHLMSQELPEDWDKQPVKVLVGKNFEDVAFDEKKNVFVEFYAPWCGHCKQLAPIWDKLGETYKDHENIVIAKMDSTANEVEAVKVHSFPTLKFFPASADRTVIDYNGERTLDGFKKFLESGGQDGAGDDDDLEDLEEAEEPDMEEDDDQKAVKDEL

B1
binding result [1]: binds | binding result [2]: binds | binding result [3]: binds

B2: Catalytically-inactive P5 (Cys55/58/190/193Ala) mutant (enzyme, human, UniProt Q15084 20-440, looked up)
chain: LYSSSDDVIELTPSNFNREVIQSDSLWLVEFYAPWAGHAQRLTPEWKKAATALKDVVKVGAVDADKHHSLGGQYGVQGFPTIKIFGSNKNRPEDYQGGRTGEAIVDAALSALRQLVKDRLGGRSGGYSSGKQGRSDSSSKKDVIELTDDSFDKNVLDSEDVWMVEFYAPWAGHAKNLEPEWAAAASEVKEQTKGKVKLAAVDATVNQVLASRYGIRGFPTIKIFQKGESPVDYDGGRTRSDIVSRALDLFSDNAPPPELLEIINEDIAKRTCEEHQLCVVAVLPHILDTGAAGRNSYLEVLLKLADKYKKKMWGWLWTEAGAQSELETALGIGGFGYPAMAAINARKMKFALLKGSFSEQGINEFLRELSFGRGSTAPVGGGAFPTIVEREPWDGRDGELPVEDDIDLSDVELDDLGKDEL
notes: human P5 (PDIA6), Lys20-Leu440, with the four active-site cysteines changed to alanine; The limits are those stated for the human P5 gene in pET15b; also called mutated P5; source: E. coli BL21 (DE3), purified (Ni-NTA, thrombin digestion, RESOURCE Q, Superdex 200)
dH [4]: -4.4 ± 0.2 kcal/mol | stoichiometry N [4]: 0.1 | dH [5]: -10.7 ± 0.8 kcal/mol | stoichiometry N [5]: 0.1

B3: ERp46 (enzyme)
chain: not shown
notes: human ERp46, Arg33-Leu432, cloned into pET15b; source: E. coli BL21 (DE3), purified (Ni-NTA, thrombin digestion, RESOURCE Q, Superdex 200)
binding result [6]: binds
